This series has as its target RGG+CTD (Homo sapiens, UniProt Q06787 527-632). As to the kind of experiment: EMSA; 10 mM Tris-HCl, 100 mM KCl, 5 mM Mg(OAc)2, pH 7.4, BSA, on ice 1 h; mRNA EMSA 0.4 pmol RNA + 20 pmol protein in 18 ul; oligo EMSA 0.2 (G17: 0.4) pmol RNA + 22 pmol protein in 7 ul; FP 5.5 pmol RNA + 300 pmol protein in 100 ul; EMSA gels 4% PAGE 0.5x TBM (2.5 mM MgCl2), RT. The settings on record: protein: recombinant; tags: N-MBP, C-His6; label: 5' FAM; single strand. (In general: Mobility shift assays separate free from complexed probe on a gel.)

B1: (U)18 (ssRNA)
RNA: UUUUUUUUUUUUUUUUUU
With B1, the binding result is reported as “binds”.
